The record followed here is article PMC7367873, “Dissecting the sequence determinants for dephosphorylation by the catalytic subunits of phosphatases PP1 and PP2A” (Nature Communications, 2020).

In one assay the test system is GFP-14-3-3β. Description: GFP-14-3-3β co-IP with LC-MS/MS, untreated GFP-14-3-3β versus GFP control (14-3-3 interactome). Particulars: pairwise comparison untreated vs GFP. Type of assay: binding, human.
Assay [1] has as its system GFP-14-3-3β and its binding proteins. Description: GFP-14-3-3β co-IP with LC-MS/MS label-free quantification, untreated versus PP1c-treated. On the set-up: species or system human. Particulars: pairwise comparison PP1 vs untreated.
The mark [2] stands for this setting: log2 difference, label-free quantification, 3 replicates each.

B1: PRPF6 (protein, UniProt O94906 1-941, looked up)
Pre-mRNA-processing factor 6: MNKKKKPFLGMPAPLGYVPGLGRGATGFTTRSDIGPARDANDPVDDRHAPPGKRTVGDQMKKNQAADDDDEDLNDTNYDEFNGYAGSLFSSGPYEKDDEEADAIYAALDKRMDERRKERREQREKEEIEKYRMERPKIQQQFSDLKRKLAEVTEEEWLSIPEVGDARNKRQRNPRYEKLTPVPDSFFAKHLQTGENHTSVDPRQTQFGGLNTPYPGGLNTPYPGGMTPGLMTPGTGELDMRKIGQARNTLMDMRLSQVSDSVSGQTVVDPKGYLTDLNSMIPTHGGDINDIKKARLLLKSVRETNPHHPPAWIASARLEEVTGKLQVARNLIMKGTEMCPKSEDVWLEAARLQPGDTAKAVVAQAVRHLPQSVRIYIRAAELETDIRAKKRVLRKALEHVPNSVRLWKAAVELEEPEDARIMLSRAVECCPTSVELWLALARLETYENARKVLNKARENIPTDRHIWITAAKLEEANGNTQMVEKIIDRAITSLRANGVEINREQWIQDAEECDRAGSVATCQAVMRAVIGIGIEEEDRKHTWMEDADSCVAHNALECARAIYAYALQVFPSKKSVWLRAAYFEKNHGTRESLEALLQRAVAHCPKAEVLWLMGAKSKWLAGDVPAARSILALAFQANPNSEEIWLAAVKLESENDEYERARRLLAKARSSAPTARVFMKSVKLEWVQDNIRAAQDLCEEALRHYEDFPKLWMMKGQIEEQKEMMEKAREAYNQGLKKCPHSTPLWLLLSRLEEKIGQLTRARAILEKSRLKNPKNPGLWLESVRLEYRAGLKNIANTLMAKALQECPNSGILWSEAIFLEARPQRRTKSVDALKKCEHDPHVLLAVAKLFWSQRKITKAREWFHRTVKIDSDLGDAWAFFYKFELQHGTEEQQEEVRKRCESAEPRHGELWCAVSKDIANWQKKIGDILRLVAGRIKNTF
Regarding B1, the “Difference (log2), untreated vs GFP” value in the assay on GFP-14-3-3β is recorded as 1.324 log2. The “Difference (log2), PP1 vs untreated” value in assay [1] is 0.1336 log2.

B2: TRIM26 (protein, UniProt Q12899 1-539, looked up)
Tripartite motif-containing …: MATSAPLRSLEEEVTCSICLDYLRDPVTIDCGHVFCRSCTTDVRPISGSRPVCPLCKKPFKKENIRPVWQLASLVENIERLKVDKGRQPGEVTREQQDAKLCERHREKLHYYCEDDGKLLCVMCRESREHRPHTAVLMEKAAQPHREKILNHLSTLRRDRDKIQGFQAKGEADILAALKKLQDQRQYIVAEFEQGHQFLREREEHLLEQLAKLEQELTEGREKFKSRGVGELARLALVISELEGKAQQPAAELMQDTRDFLNRYPRKKFWVGKPIARVVKKKTGEFSDKLLSLQRGLREFQGKLLRDLEYKTVSVTLDPQSASGYLQLSEDWKCVTYTSLYKSAYLHPQQFDCEPGVLGSKGFTWGKVYWEVEVEREGWSEDEEEGDEEEEGEEEEEEEEAGYGDGYDDWETDEDEESLGDEEEEEEEEEEEVLESCMVGVARDSVKRKGDLSLRPEDGVWALRLSSSGIWANTSPEAELFPALRPRRVGIALDYEGGTVTFTNAESQELIYTFTATFTRRLVPFLWLKWPGTRLLLRP
With B2, the “Difference (log2), untreated vs GFP” value in the assay with GFP-14-3-3β (setting [2]) is -0.363. Further, the “Difference (log2), PP1 vs untreated” value in assay [1] (setting [2]) was 2.003.

B3: USP53 (protein, UniProt Q70EK8 1-1073, looked up)
Ubiquitin carboxyl-terminal …: MAWVKFLRKPGGNLGKVYQPGSMLSLAPTKGLLNEPGQNSCFLNSAVQVLWQLDIFRRSLRVLTGHVCQGDACIFCALKTIFAQFQHSREKALPSDNIRHALAESFKDEQRFQLGLMDDAAECFENMLERIHFHIVPSRDADMCTSKSCITHQKFAMTLYEQCVCRSCGASSDPLPFTEFVRYISTTALCNEVERMLERHERFKPEMFAELLQAANTTDDYRKCPSNCGQKIKIRRVLMNCPEIVTIGLVWDSEHSDLTEAVVRNLATHLYLPGLFYRVTDENAKNSELNLVGMICYTSQHYCAFAFHTKSSKWVFFDDANVKEIGTRWKDVVSKCIRCHFQPLLLFYANPDGTAVSTEDALRQVISWSHYKSVAENMGCEKPVIHKSDNLKENGFGDQAKQRENQKFPTDNISSSNRSHSHTGVGKGPAKLSHIDQREKIKDISRECALKAIEQKNLLSSQRKDLEKGQRKDLGRHRDLVDEDLSHFQSGSPPAPNGFKQHGNPHLYHSQGKGSYKHDRVVPQSRASAQIISSSKSQILAPGEKITGKVKSDNGTGYDTDSSQDSRDRGNSCDSSSKSRNRGWKPMRETLNVDSIFSESEKRQHSPRHKPNISNKPKSSKDPSFSNWPKENPKQKGLMTIYEDEMKQEIGSRSSLESNGKGAEKNKGLVEGKVHGDNWQMQRTESGYESSDHISNGSTNLDSPVIDGNGTVMDISGVKETVCFSDQITTSNLNKERGDCTSLQSQHHLEGFRKELRNLEAGYKSHEFHPESHLQIKNHLIKRSHVHEDNGKLFPSSSLQIPKDHNAREHIHQSDEQKLEKPNECKFSEWLNIENSERTGLPFHVDNSASGKRVNSNEPSSLWSSHLRTVGLKPETAPLIQQQNIMDQCYFENSLSTECIIRSASRSDGCQMPKLFCQNLPPPLPPKKYAITSVPQSEKSESTPDVKLTEVFKATSHLPKHSLSTASEPSLEVSTHMNDERHKETFQVRECFGNTPNCPSSSSTNDFQANSGAIDAFCQPELDSISTCPNETVSLTTYFSVDSCMTDTYRLKYHQRPKLSFPESSGFCNNSLS
For B3, the “Difference (log2), untreated vs GFP” value with GFP-14-3-3β (setting [2]) stood at 5.4971. The “Difference (log2), PP1 vs untreated” value in assay [1] (setting [2]) is 1.978.

B4: ADAR (protein, UniProt P55265 1-1226, looked up)
Double-stranded RNA-specific …: MNPRQGYSLSGYYTHPFQGYEHRQLRYQQPGPGSSPSSFLLKQIEFLKGQLPEAPVIGKQTPSLPPSLPGLRPRFPVLLASSTRGRQVDIRGVPRGVHLRSQGLQRGFQHPSPRGRSLPQRGVDCLSSHFQELSIYQDQEQRILKFLEELGEGKATTAHDLSGKLGTPKKEINRVLYSLAKKGKLQKEAGTPPLWKIAVSTQAWNQHSGVVRPDGHSQGAPNSDPSLEPEDRNSTSVSEDLLEPFIAVSAQAWNQHSGVVRPDSHSQGSPNSDPGLEPEDSNSTSALEDPLEFLDMAEIKEKICDYLFNVSDSSALNLAKNIGLTKARDINAVLIDMERQGDVYRQGTTPPIWHLTDKKRERMQIKRNTNSVPETAPAAIPETKRNAEFLTCNIPTSNASNNMVTTEKVENGQEPVIKLENRQEARPEPARLKPPVHYNGPSKAGYVDFENGQWATDDIPDDLNSIRAAPGEFRAIMEMPSFYSHGLPRCSPYKKLTECQLKNPISGLLEYAQFASQTCEFNMIEQSGPPHEPRFKFQVVINGREFPPAEAGSKKVAKQDAAMKAMTILLEEAKAKDSGKSEESSHYSTEKESEKTAESQTPTPSATSFFSGKSPVTTLLECMHKLGNSCEFRLLSKEGPAHEPKFQYCVAVGAQTFPSVSAPSKKVAKQMAAEEAMKALHGEATNSMASDNQPEGMISESLDNLESMMPNKVRKIGELVRYLNTNPVGGLLEYARSHGFAAEFKLVDQSGPPHEPKFVYQAKVGGRWFPAVCAHSKKQGKQEAADAALRVLIGENEKAERMGFTEVTPVTGASLRRTMLLLSRSPEAQPKTLPLTGSTFHDQIAMLSHRCFNTLTNSFQPSLLGRKILAAIIMKKDSEDMGVVVSLGTGNRCVKGDSLSLKGETVNDCHAEIISRRGFIRFLYSELMKYNSQTAKDSIFEPAKGGEKLQIKKTVSFHLYISTAPCGDGALFDKSCSDRAMESTESRHYPVFENPKQGKLRTKVENGEGTIPVESSDIVPTWDGIRLGERLRTMSCSDKILRWNVLGLQGALLTHFLQPIYLKSVTLGYLFSQGHLTRAICCRVTRDGSAFEDGLRHPFIVNHPKVGRVSIYDSKRQSGKTKETSVNWCLADGYDLEILDGTRGTVDGPRNELSRVSKKNIFLLFKKLCSFRYRRDLLRLSYGEAKKAARDYETAKNYFKKGLKDMGYGNWISKPQEEKNFYLCPV
On to B4, for which the “Difference (log2), untreated vs GFP” value in the assay with GFP-14-3-3β is on record as 1.541 log2. Further, in assay [1], the “Difference (log2), PP1 vs untreated” value is given as 0.1214 log2.

B5: SLC39A7 (protein, UniProt Q92504 1-469, looked up)
Zinc transporter SLC39A7: MARGLGAPHWVAVGLLTWATLGLLVAGLGGHDDLHDDLQEDFHGHSHRHSHEDFHHGHSHAHGHGHTHESIWHGHTHDHDHGHSHEDLHHGHSHGYSHESLYHRGHGHDHEHSHGGYGESGAPGIKQDLDAVTLWAYALGATVLISAAPFFVLFLIPVESNSPRHRSLLQILLSFASGGLLGDAFLHLIPHALEPHSHHTLEQPGHGHSHSGQGPILSVGLWVLSGIVAFLVVEKFVRHVKGGHGHSHGHGHAHSHTRGSHGHGRQERSTKEKQSSEEEEKETRGVQKRRGGSTVPKDGPVRPQNAEEEKRGLDLRVSGYLNLAADLAHNFTDGLAIGASFRGGRGLGILTTMTVLLHEVPHEVGDFAILVQSGCSKKQAMRLQLLTAVGALAGTACALLTEGGAVGSEIAGGAGPGWVLPFTAGGFIYVATVSVLPELLREASPLQSLLEVLGLLGGVIMMVLIAHLE
As for B5, the “Difference (log2), untreated vs GFP” value in the assay with GFP-14-3-3β amounted to 0.9479 log2. The “Difference (log2), PP1 vs untreated” value in assay [1] was 0.1123 log2.

B6: RRP12 (protein, UniProt Q5JTH9 1-1297, looked up)
RRP12-like protein: MGRSGKLPSGVSAKLKRWKKGHSSDSNPAICRHRQAARSRFFSRPSGRSDLTVDAVKLHNELQSGSLRLGKSEAPETPMEEEAELVLTEKSSGTFLSGLSDCTNVTFSKVQRFWESNSAAHKEICAVLAAVTEVIRSQGGKETETEYFAALMTTMEAVESPESLAAVAYLLNLVLKRVPSPVLIKKFSDTSKAFMDIMSAQASSGSTSVLRWVLSCLATLLRKQDLEAWGYPVTLQVYHGLLSFTVHPKPKIRKAAQHGVCSVLKGSEFMFEKAPAHHPAAISTAKFCIQEIEKSGGSKEATTTLHMLTLLKDLLPCFPEGLVKSCSETLLRVMTLSHVLVTACAMQAFHSLFHARPGLSTLSAELNAQIITALYDYVPSENDLQPLLAWLKVMEKAHINLVRLQWDLGLGHLPRFFGTAVTCLLSPHSQVLTAATQSLKEILKECVAPHMADIGSVTSSASGPAQSVAKMFRAVEEGLTYKFHAAWSSVLQLLCVFFEACGRQAHPVMRKCLQSLCDLRLSPHFPHTAALDQAVGAAVTSMGPEVVLQAVPLEIDGSEETLDFPRSWLLPVIRDHVQETRLGFFTTYFLPLANTLKSKAMDLAQAGSTVESKIYDTLQWQMWTLLPGFCTRPTDVAISFKGLARTLGMAISERPDLRVTVCQALRTLITKGCQAEADRAEVSRFAKNFLPILFNLYGQPVAAGDTPAPRRAVLETIRTYLTITDTQLVNSLLEKASEKVLDPASSDFTRLSVLDLVVALAPCADEAAISKLYSTIRPYLESKAHGVQKKAYRVLEEVCASPQGPGALFVQSHLEDLKKTLLDSLRSTSSPAKRPRLKCLLHIVRKLSAEHKEFITALIPEVILCTKEVSVGARKNAFALLVEMGHAFLRFGSNQEEALQCYLVLIYPGLVGAVTMVSCSILALTHLLFEFKGLMGTSTVEQLLENVCLLLASRTRDVVKSALGFIKVAVTVMDVAHLAKHVQLVMEAIGKLSDDMRRHFRMKLRNLFTKFIRKFGFELVKRLLPEEYHRVLVNIRKAEARAKRHRALSQAAVEEEEEEEEEEEPAQGKGDSIEEILADSEDEEDNEEEERSRGKEQRKLARQRSRAWLKEGGGDEPLNFLDPKVAQRVLATQPGPGRGRKKDHGFKVSADGRLIIREEADGNKMEEEEGAKGEDEEMADPMEDVIIRNKKHQKLKHQKEAEEEELEIPPQYQAGGSGIHRPVAKKAMPGAEYKAKKAKGDVKKKGRPDPYAYIPLNRSKLNRRKKMKLQGQFKGLVKAARRGSQVGHKNRRKDRRP
Take B6: the “Difference (log2), untreated vs GFP” value in the assay on GFP-14-3-3β came out at 0.888 log2. In assay [1], the “Difference (log2), PP1 vs untreated” value was 0.1167 log2.
